Measurements from article PMC5985294.

Biological target: Neutrophil elastase (NE), active, human (human) (UniProt P08246)
Sequence of UniProt P08246 (P08246 30-267): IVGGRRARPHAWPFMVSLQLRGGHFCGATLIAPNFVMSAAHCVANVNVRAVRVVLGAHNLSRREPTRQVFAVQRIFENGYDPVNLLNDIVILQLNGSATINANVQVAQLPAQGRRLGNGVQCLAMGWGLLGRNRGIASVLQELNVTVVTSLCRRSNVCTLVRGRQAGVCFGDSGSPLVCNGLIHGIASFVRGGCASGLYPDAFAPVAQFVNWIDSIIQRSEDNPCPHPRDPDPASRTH

Substance | IC50 of inhibition of NE (5 nM) degradation of fluorogenic elastase substrate V (MeOSuc-Ala-Ala-Pro-Val-AMC), after 30 min pre-incubation at 37°C [nM] | IC50 of inhibition of NE (5 nM) gelatinolytic activity, DQ-gelatin degradation, with 50 µM SB-3CT [nM]
MMP-9-treated SLPI, MMP-9/SLPI molar ratio 1/5 (from UniProt P03973 26-41; P03973 42-96; P03973 97-132) | 76.3 | 51.2
MMP-9-treated SLPI, MMP-9/SLPI molar ratio 1/20 (from UniProt P03973 26-96; P03973 97-132) | 28.9 | 5.24
Secretory leukocyte peptidase inhibitor (SLPI), intact (from UniProt P03973 26-132) (natural protein) | 8.71 | 0.97
